According to paper PMC3507880, “Rationale-Based Engineering of a Potent Long-Acting FGF21 Analog for the Treatment of Type 2 Diabetes” (PLoS ONE, 2012):
Residue numbers refer to the chain shown, from its start. One block for each binder: values may come before it.

Legend:
Q9NSA1 = experiment: SEC; SEC-HPLC (Bio-Sil SEC-250, 2x PBS with 2% isopropyl alcohol); 65 mg/ml in 10 mM potassium phosphate, 5% sorbitol, pH 8.0; stored at 25°C or 4°C for 2 to 9 days; high molecular weight species as % of total
human βKlotho = biological target: T1, human βKlotho (human, UniProt Q86Z14 1-996); experiment: cell-based or functional assay
T1 sequence (looked up): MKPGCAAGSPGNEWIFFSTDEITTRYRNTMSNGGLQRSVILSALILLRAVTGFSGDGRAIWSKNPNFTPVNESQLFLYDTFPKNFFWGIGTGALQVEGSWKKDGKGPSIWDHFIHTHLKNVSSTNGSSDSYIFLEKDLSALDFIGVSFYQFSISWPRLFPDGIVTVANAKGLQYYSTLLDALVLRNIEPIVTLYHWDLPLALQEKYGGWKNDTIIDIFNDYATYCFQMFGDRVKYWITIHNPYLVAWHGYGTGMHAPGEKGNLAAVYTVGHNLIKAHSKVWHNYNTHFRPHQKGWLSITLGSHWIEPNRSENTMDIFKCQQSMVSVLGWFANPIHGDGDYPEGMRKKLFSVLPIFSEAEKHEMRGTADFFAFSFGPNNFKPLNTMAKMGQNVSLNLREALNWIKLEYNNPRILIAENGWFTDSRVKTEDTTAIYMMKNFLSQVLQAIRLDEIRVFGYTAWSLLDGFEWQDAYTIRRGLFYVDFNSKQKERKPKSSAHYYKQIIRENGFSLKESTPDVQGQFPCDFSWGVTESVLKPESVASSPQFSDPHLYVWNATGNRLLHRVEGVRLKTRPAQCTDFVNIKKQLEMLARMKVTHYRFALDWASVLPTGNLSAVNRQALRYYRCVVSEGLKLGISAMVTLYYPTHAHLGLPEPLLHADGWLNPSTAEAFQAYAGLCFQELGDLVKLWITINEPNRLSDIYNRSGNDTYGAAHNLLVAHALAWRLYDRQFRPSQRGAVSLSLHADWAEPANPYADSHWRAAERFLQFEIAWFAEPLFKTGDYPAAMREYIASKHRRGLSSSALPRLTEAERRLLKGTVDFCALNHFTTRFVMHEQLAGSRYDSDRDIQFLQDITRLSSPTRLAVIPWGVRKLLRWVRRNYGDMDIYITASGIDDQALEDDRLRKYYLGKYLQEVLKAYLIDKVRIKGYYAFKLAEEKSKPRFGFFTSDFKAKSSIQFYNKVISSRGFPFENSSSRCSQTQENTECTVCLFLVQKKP

B1: Fc-FGF21(RG) (protein)
chain: HPIPDSSPLLQFGGQVRQRYLYTDDAQQTEAHLEIREDGTVGGAADQSPESLLQLKALKPGVIQILGVKTSRFLCQRPDGALYGSLHFDPEACSFRERLLEDGYNVYQSEAHGLPLHLPGNKSPHRDPAPRGPARFLPLPGLPPALPEPPGILAPQPPDVGSSDPLSMVGGSQGRSPSYAS
- aggregates, percent of total, over 9 days (Q9NSA1): the amount of aggregates remained below 3% at all tested conditions

B2: wild type human mature FGF21 (protein)
chain: B1 chain with R98L, G171P
- high molecular aggregates, percent of total, day 5 (Q9NSA1): the high molecular aggregates accounted for 50% and 25% of total native FGF21 and Fc-FGF21, respectively

- Elk1-dependent luciferase reporter in 293T cells stably overexpressing human βKlotho or CHO cells overexpressing human βKlotho and human FGFR1c; maximal activity relative to native FGF21 (human βKlotho): ~80%
B3: Fc-FGF21 (N-terminal Fc fusion of human mature FGF21, wild type) (Fc fusion, UniProt Q9NSA1 29-209, looked up)
chain: B1 chain with R98L, G171P
- high molecular aggregates, percent of total, day 5 (Q9NSA1): the high molecular aggregates accounted for 50% and 25% of total native FGF21 and Fc-FGF21, respectively
